Target: HLA-A*02:01 (Homo sapiens, UniProt P04439, D140Y/D185E/D98H/E176V/E277Q/G131W/G231S/I119V/I121R/I166T/I218V/L300P/L318F/N151K/N90K/P208A/P217A/Q86G/Q94H/R138H/R169H/T345S)
Test: MHC binding assay (UV-ligand exchange, beta2m ELISA)
Settings: binding to HLA-A*02:01 ranged by peptide exchange yield (UV-ligand exchange, β2m ELISA)
Procedure, shortened: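 UV-cleavable ligand in peptide-MHC complexes was exchanged for test peptide. Exchange yield came from an ELISA on streptavidin-captured complexes diluted 100 fold, detecting β2m with HRP anti-β2m (2 ug/ml, 1 h, 37° C.), TMB, A450.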

Peptide exchange	Substance
“+++” (≥50 = +++)	200 (LLFGSVQEV; listed as Homo sapiens) [compound 200]
“+++” (≥50 = +++)	20 (RMIEYFIDV; listed as Homo sapiens) [compound 20]
“+++” (≥50 = +++)	322 (TLMTSLPAL; listed as Homo sapiens) [compound 322]
“+++” (≥50 = +++)	244 (SLFGGTEITI; listed as Homo sapiens) [compound 244]
“++” (≥20% = ++)	211 (LLWPGAALL; listed as Homo sapiens) [compound 211]
“+++” (≥50 = +++)	254 (TLLAFIMEL; listed as Homo sapiens) [compound 254]
“+++” (≥50 = +++)	75 (GLLEVMVNL; listed as Homo sapiens) [compound 75]
“+++” (≥50 = +++)	563 (WLLPYNGVTV; listed as Homo sapiens) [compound 563]
“+++” (≥50 = +++)	284 (ILLSQTTGV; listed as Homo sapiens) [compound 284]
“+++” (≥50 = +++)	572 (ALADLIEKELSV; listed as Homo sapiens) [compound 572]
“++++” (≥75% = ++++)	108 (ALFPGVALLLA; listed as Homo sapiens) [compound 108]
“+++” (≥50 = +++)	286 (YLFPGIPEL; listed as Homo sapiens) [compound 286]
“++” (≥20% = ++)	363 (KVLDVSDLESV; listed as Homo sapiens) [compound 363]
“++++” (≥75% = ++++)	62 (VLLDVSAGQLLM; listed as Homo sapiens) [compound 62]
“+++” (≥50 = +++)	390 (ALFMKQIYL; listed as Homo sapiens) [compound 390]
“+++” (≥50 = +++)	120 (ALLGIPLTLV; listed as Homo sapiens) [compound 120]
“++” (≥20% = ++)	389 (LLADVTHLL; listed as Homo sapiens) [compound 389]
“+++” (≥50 = +++)	245 (SMIDDLLGV; listed as Homo sapiens) [compound 245]
“+++” (≥50 = +++)	263 (LLVSNLDFGV; listed as Homo sapiens) [compound 263]
“+++” (≥50 = +++)	525 (VLLEAGEGLVTI; listed as Homo sapiens) [compound 525]
“++++” (≥75% = ++++)	237 (ALLEASGTLLL; listed as Homo sapiens) [compound 237]
“++++” (≥75% = ++++)	329 (FLVTLNNVEV; listed as Homo sapiens) [compound 329]
“+++” (≥50 = +++)	537 (TLAPGEVLRSV; listed as Homo sapiens) [compound 537]
“++++” (≥75% = ++++)	371 (FLQAHLHTA; listed as Homo sapiens) [compound 371]
“++” (≥20% = ++)	491 (GLNDRSDAV; listed as Homo sapiens) [compound 491]
“++” (≥20% = ++)	461 (VMFRTPLASV; listed as Homo sapiens) [compound 461]

Peptide exchange	Substance
“+++” (≥50 = +++)	167 (KVLEVTEEFGV; listed as Homo sapiens) [compound 167]
“+++” (≥50 = +++)	86 (NLIGKIENV; listed as Homo sapiens) [compound 86]
“++++” (≥75% = ++++)	19 (FMVDNEAIYDI; listed as Homo sapiens) [compound 19]
“++” (≥20% = ++)	402 (VLFSGALLGL; listed as Homo sapiens) [compound 402]
“+++” (≥50 = +++)	364 (LLQNEQFEL; listed as Homo sapiens) [compound 364]
“+++” (≥50 = +++)	111 (YVWGFYPAEV; listed as Homo sapiens) [compound 111]
“+++” (≥50 = +++)	529 (LLADELITV; listed as Homo sapiens) [compound 529]
“++” (≥20% = ++)	393 (GLLDTQTSQVLTA; listed as Homo sapiens) [compound 393]
“+++” (≥50 = +++)	125 (VQIHQVAQV; listed as Homo sapiens) [compound 125]
“+++” (≥50 = +++)	102 (YLFESEGLVL; listed as Homo sapiens) [compound 102]
“+++” (≥50 = +++)	70 (GLLDYPVGV; listed as Homo sapiens) [compound 70]
“+++” (≥50 = +++)	130 (FLWNGEDSALL; listed as Homo sapiens) [compound 130]
“++++” (≥75% = ++++)	10 (FLATFPLAAV; listed as Homo sapiens) [compound 10]
“+++” (≥50 = +++)	304 (MTLGQIYYL; listed as Homo sapiens) [compound 304]
“+++” (≥50 = +++)	448 (NLLETKLQL; listed as Homo sapiens) [compound 448]
“+++” (≥50 = +++)	481 (GLIEDYEALL; listed as Homo sapiens) [compound 481]
“++” (≥20% = ++)	154 (ALDDGTPAL; listed as Homo sapiens) [compound 154]
“++” (≥20% = ++)	403 (KLYDRILRV; listed as Homo sapiens) [compound 403]
“++” (≥20% = ++)	400 (SLLTEQDLWTV; listed as Homo sapiens) [compound 400]
“+++” (≥50 = +++)	238 (YLISFQTHI; listed as Homo sapiens) [compound 238]
“+++” (≥50 = +++)	342 (HIYDKVMTV; listed as Homo sapiens) [compound 342]
“+++” (≥50 = +++)	223 (ALLENIALYL; listed as Homo sapiens) [compound 223]
“+++” (≥50 = +++)	88 (FLLVGDLMAV; listed as Homo sapiens) [compound 88]
“++” (≥20% = ++)	207 (GLTSTNAEV; listed as Homo sapiens) [compound 207]
“++” (≥20% = ++)	217 (ALIHPVSTV; listed as Homo sapiens) [compound 217]
“++++” (≥75% = ++++)	347 (SLFKHDPAAWEA; listed as Homo sapiens) [compound 347]

Peptide exchange	Substance
“+++” (≥50 = +++)	502 (RLLAQVPGL; listed as Homo sapiens) [compound 502]
“+++” (≥50 = +++)	280 (VLPDPEVLEAV; listed as Homo sapiens) [compound 280]
“+++” (≥50 = +++)	59 (IMEDIILTL; listed as Homo sapiens) [compound 59]
“+++” (≥50 = +++)	542 (RVWDISTVSSV; listed as Homo sapiens) [compound 542]
“+++” (≥50 = +++)	135 (ALSEVDFQL; listed as Homo sapiens) [compound 135]
“++” (≥20% = ++)	180 (FQIDPHSGLVTV; listed as Homo sapiens) [compound 180]
“++” (≥20% = ++)	251 (ALYTGFSILV; listed as Homo sapiens) [compound 251]
“++” (≥20% = ++)	258 (ELAERVPAI; listed as Homo sapiens) [compound 258]
“+++” (≥50 = +++)	554 (LLMPSSEDLLL; listed as Homo sapiens) [compound 554]
“+++” (≥50 = +++)	164 (ALLPQPKNLTV; listed as Homo sapiens) [compound 164]
“+++” (≥50 = +++)	396 (ALLPDLPAL; listed as Homo sapiens) [compound 396]
“++” (≥20% = ++)	494 (ALQPEPIKV; listed as Homo sapiens) [compound 494]
“++” (≥20% = ++)	44 (ILDPISSGFLL; listed as Homo sapiens) [compound 44]
“+++” (≥50 = +++)	144 (YIMEPSIFNTL; listed as Homo sapiens) [compound 144]
“++” (≥20% = ++)	455 (SLLKEPQKVQL; listed as Homo sapiens) [compound 455]
“++” (≥20% = ++)	273 (NLFQSVREV; listed as Homo sapiens) [compound 273]
“+++” (≥50 = +++)	365 (YVIDQGETDVYV; listed as Homo sapiens) [compound 365]
“++” (≥20% = ++)	505 (SLAPGDVVRQV; listed as Homo sapiens) [compound 505]
“+++” (≥50 = +++)	316 (ILLERLWYV; listed as Homo sapiens) [compound 316]
“++++” (≥75% = ++++)	527 (FLLEPGNLEV; listed as Homo sapiens) [compound 527]
“+++” (≥50 = +++)	544 (LLWDVPAPSL; listed as Homo sapiens) [compound 544]
“+++” (≥50 = +++)	449 (KLAEGLDIQL; listed as Homo sapiens) [compound 449]
“+++” (≥50 = +++)	476 (ALMERTGYSMV; listed as Homo sapiens) [compound 476]
“++” (≥20% = ++)	172 (VLYSYTIITV; listed as Homo sapiens) [compound 172]
“+++” (≥50 = +++)	328 (ALNDQVFEI; listed as Homo sapiens) [compound 328]
“+++” (≥50 = +++)	618 (VLFDSESIGIYV; listed as Homo sapiens) [compound 618]
